Data as given in US20230037911A1 (SHANGHAI HENLIUS BIOTECH, published 2023).
Changes are numbered by the printed parent chain.

T1: recombinant human TIGIT extra cellular domain (ECD) protein (human, UniProt Q495A1 22-138)
T1 construct: Purchased protein; it begins with the signal peptide; also called h-TIGIT ECD; human TIGIT ECD
T1 sequence: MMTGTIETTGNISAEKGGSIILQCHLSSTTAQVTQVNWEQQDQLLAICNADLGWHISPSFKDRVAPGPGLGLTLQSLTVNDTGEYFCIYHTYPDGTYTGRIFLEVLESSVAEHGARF

T2: recombinant mouse-TIGIT (mouse, UniProt P86176 29-148, limits assumed)
T2 sequence (looked up): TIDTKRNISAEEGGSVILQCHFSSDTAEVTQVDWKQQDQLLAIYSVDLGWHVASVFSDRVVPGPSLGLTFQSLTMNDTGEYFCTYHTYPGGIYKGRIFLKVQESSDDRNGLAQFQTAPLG

B1: 1G1-1C12 VHH (VHH)
VHH: QVQLVESGGGVVQPGRSLRLSCAASGPSFSSYPMGWFRQAPGKERESVAAISSDLRFTYYADSVKGRFTISRDNSKNTLYLQMNSLRAEDTAVYYCAARDSGSGYYSRKQWYDYWGQGTLVTVSS
notes: VHH in bacterial supernatant
B2: Bivalent 2A3 antibody (2A3-Fc), 2A3 VHH with human IgG1 CH2 and CH3 domains (Fc fusion)
chain: B1 VHH with P27G, L55M, S103V, K109A
notes: Expressed in ExpiCHO, protein A purified; also called 2A3-Fc mAb; 2A3 clone; not shown: human IgG1 CH2 and CH3 domains
B3: human TIGIT stably expressed on cells (Jurkat; 293T) (receptor)
chain: MMTGTIETTGNISAEKGGSIILQCHLSSTTAQVTQVNWEQQDQLLAICNADLGWHISPSFKDRVAPGPGLGLTLQSLTVNDTGEYFCIYHTYPDGTYTGRIFLEVLESSVAEHGARFQIPLLGAMAATLVVICTAVIVVVALTRKKKALRIHSVEGDLRRKSAGQEEWSPSAPSPPGSCVQAEAAPAGLCGEQRGEDCAELHDYFNVLSYRSLGNCSFFTETG
notes: the expression vector's insert is not described further; also called h-TIGIT; human TIGIT transfected Jurkat cells

How the values were obtained:
[1] = target: T1, recombinant human TIGIT extra cellular …; test: ELISA, VHH in supernatant
[2] = target: B3; test: flow cytometry, whole cell binding assay on human TIGIT expressing cells (upper panel)
recombinant mouse-TIGIT = target: T2, recombinant mouse-TIGIT; test: ELISA
[3] = target: B3; test: cell-based or functional assay
[4] = target: B3; test: whole cell binding, flow cytometry, n=3
[5] = target: T1, recombinant human TIGIT extra cellular …; test: ELISA on recombinant human TIGIT ECD
[6] = target: T3, recombinant cynomolgus TIGIT (cyno-TIGIT ECD) (cynomolgus monkey, UniProt A0A7N9I9V4 89-209); test: ELISA on recombinant cyno-TIGIT
T3 construct: extracellular domain

[7] = target: B3; test: cell-based or functional assay; remark: listed apart in the source
[8] = target: T4, 15A5 bivalent VHH antibody (VHH with human CH2 and CH3) (human, UniProt P01857-1 104-330 = IgG part, limits assumed); test: flow cytometry, whole cell binding on Jurkat cells stably expressing human TIGIT; Alexa Fluor 488 anti-human IgG Fc secondary
T4 construct: domain: CH2 and CH3
Description: (§1) FIGS. 1A-1C depict whole cell binding of representative VHH bivalent antibodies to human TIGIT determined by flowcytometry assays. […] Y axis represents Mean Fluorescence Intensity of AlexaFlour 488. X axis represents antibody concentrations in nanomolar. […] FIG. 1C is a schematic of the structure of a TIGIT VHH bivalent antibody.
(§2) Jurkat cells stably expressing human TIGIT and NFAT reporter gene were established. Specifically, Jurkat cells were transfected with human TIGIT expression vector by electroporation, and cells stably expressing human TIGIT were selected by 1 μg/ml puromycin during cell culture. Representative antibody clones were incubated at different concentrations with h-TIGIT stably expressing Jurkat cells (0.2×10⁶/ml) in 100 μl/well in 96-well plate in FACS buffer (PBS with 1.5% FBS) for 30 min. After washing, Alexaflour 488 conjugated anti-human IgG Fc secondary antibody (Alexa Fluor® 488 AffiniPure Goat Anti-Human IgG, Fcγ fragment specific, Jackson labs, 1:500 dilution) was added and incubated for 30 min. After washing, mean fluorescence intensity was measured using CytoFlex (Beckman Coulter) by gating live cell population. Binding affinity was calculated using GraphPad Prism.

[9] = target: T5, 2B7 bivalent VHH antibody (VHH with human CH2 and CH3) (human, UniProt P01857-1 104-330 = IgG part, limits assumed); test: as above
T5 construct: domain: CH2 and CH3; Expressed in ExpiCHO, Protein A purified
Description: as §1, §2

[10] = target: T6, 13H11 bivalent VHH antibody (VHH with human CH2 and CH3) (human, UniProt P01857-1 104-330 = IgG part, limits assumed); test: as above
T6 construct: domain: CH2 and CH3
Description: as §1, §2

[11] = target: T7, 2B10 bivalent VHH antibody (VHH with human CH2 and CH3) (human, UniProt P01857-1 104-330 = IgG part, limits assumed); test: as above
T7 construct: domain: CH2 and CH3
Description: as §1, §2

[12] = target: T8, 3G6 bivalent VHH antibody (VHH with human CH2 and CH3) (human, UniProt P01857-1 104-330 = IgG part, limits assumed); test: as above
T8 construct: domain: CH2 and CH3
Description: as §1, §2

[13] = target: T9, 3G7 bivalent VHH antibody (VHH with human CH2 and CH3) (human, UniProt P01857-1 104-330 = IgG part, limits assumed); test: as above
T9 construct: domain: CH2 and CH3
Description: as §1, §2

[14] = target: T10, 1G1-F-G-ERES humanized bivalent antibody (human, UniProt P01857-1 104-330 = IgG part, limits assumed); test: flow cytometry, whole cell binding on h-TIGIT transfected Jurkat cells; anti-human IgG Fc AlexaFluor488 secondary
T10 construct: domain: CH2 and CH3; Called humanized bivalent antibody; the Fc part is not restated
Protocol: (§3) The binding affinities of the humanized bivalent antibodies to human TIGIT were determined by whole cell binding to h-TIGIT stably expressed on Jurkat cells. Briefly, antibodies were incubated with h-TIGIT transfected Jurkat cells (0.2×10⁶/well in 100 μl) for 30 min in FACS buffer. The cells were washed once, then incubated with anti-human IgG Fc AlexaFluor488 (1:500).

[15] = target: T11, 1C12-EREW humanized bivalent antibody (human, UniProt P01857-1 104-330 = IgG part, limits assumed); test: as above
T11 construct: domain: CH2 and CH3; Called humanized bivalent antibody; the Fc part is not restated; also called 1C12 (F-EREW)
Protocol: as §3

[16] = target: T12, 1G1-F-A-ERES humanized bivalent antibody (human, UniProt P01857-1 104-330 = IgG part, limits assumed); test: as above
T12 construct: domain: CH2 and CH3; Called humanized bivalent antibody; the Fc part is not restated
Protocol: as §3

[17] = target: T13, 1C12-GLEW humanized bivalent antibody (human, UniProt P01857-1 104-330 = IgG part, limits assumed); test: as above
T13 construct: domain: CH2 and CH3; Called humanized bivalent antibody; the Fc part is not restated; also called 1C12(F-GLEW)
Protocol: as §3

[18] = target: T14, 1C12-EREF humanized bivalent antibody (human, UniProt P01857-1 104-330 = IgG part, limits assumed); test: as above
T14 construct: domain: CH2 and CH3; Called humanized bivalent antibody; the Fc part is not restated; also called 1C12 (F-EREF)
Protocol: as §3

T7 sequence (P01857 other isoform, or with tags, fused parts or gaps limits assumed): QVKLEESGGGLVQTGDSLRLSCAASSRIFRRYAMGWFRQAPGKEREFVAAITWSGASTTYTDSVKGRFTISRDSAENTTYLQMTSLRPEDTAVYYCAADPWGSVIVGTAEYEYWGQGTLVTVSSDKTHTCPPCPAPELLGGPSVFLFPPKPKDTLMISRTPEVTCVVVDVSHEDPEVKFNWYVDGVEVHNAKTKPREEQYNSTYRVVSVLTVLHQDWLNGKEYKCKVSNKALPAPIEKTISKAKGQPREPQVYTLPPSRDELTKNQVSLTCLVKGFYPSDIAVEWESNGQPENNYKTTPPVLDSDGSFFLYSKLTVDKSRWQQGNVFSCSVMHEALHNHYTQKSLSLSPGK
T8 sequence (P01857 other isoform, or with tags, fused parts or gaps limits assumed): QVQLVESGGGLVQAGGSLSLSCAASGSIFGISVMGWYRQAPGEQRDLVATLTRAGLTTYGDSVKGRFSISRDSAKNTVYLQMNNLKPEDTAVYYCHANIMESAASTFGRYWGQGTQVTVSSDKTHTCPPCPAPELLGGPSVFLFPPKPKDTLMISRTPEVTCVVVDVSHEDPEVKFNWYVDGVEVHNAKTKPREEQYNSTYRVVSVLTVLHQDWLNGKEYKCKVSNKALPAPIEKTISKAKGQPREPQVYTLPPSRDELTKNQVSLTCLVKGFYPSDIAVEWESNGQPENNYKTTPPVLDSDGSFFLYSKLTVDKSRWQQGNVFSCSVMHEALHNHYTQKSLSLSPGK
T6 sequence (P01857 other isoform, or with tags, fused parts or gaps limits assumed): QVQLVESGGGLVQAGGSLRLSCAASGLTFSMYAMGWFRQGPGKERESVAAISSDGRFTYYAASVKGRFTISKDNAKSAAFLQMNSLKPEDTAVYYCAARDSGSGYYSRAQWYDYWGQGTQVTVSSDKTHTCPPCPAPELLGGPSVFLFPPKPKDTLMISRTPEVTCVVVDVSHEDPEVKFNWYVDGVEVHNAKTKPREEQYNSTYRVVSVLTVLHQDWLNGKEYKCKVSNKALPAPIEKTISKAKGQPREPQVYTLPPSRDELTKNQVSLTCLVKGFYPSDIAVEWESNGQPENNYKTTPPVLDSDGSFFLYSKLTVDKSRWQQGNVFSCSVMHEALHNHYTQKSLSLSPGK
T5 sequence (P01857 other isoform, or with tags, fused parts or gaps limits assumed): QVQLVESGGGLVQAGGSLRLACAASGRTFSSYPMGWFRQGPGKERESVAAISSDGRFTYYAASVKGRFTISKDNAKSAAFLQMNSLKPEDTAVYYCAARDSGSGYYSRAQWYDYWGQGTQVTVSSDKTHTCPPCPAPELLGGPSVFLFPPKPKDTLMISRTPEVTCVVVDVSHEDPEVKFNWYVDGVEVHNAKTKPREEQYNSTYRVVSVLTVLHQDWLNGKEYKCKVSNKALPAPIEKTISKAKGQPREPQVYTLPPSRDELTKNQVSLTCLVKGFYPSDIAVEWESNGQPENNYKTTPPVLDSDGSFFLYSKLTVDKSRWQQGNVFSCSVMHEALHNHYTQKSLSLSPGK
T9 sequence (P01857 other isoform, or with tags, fused parts or gaps limits assumed): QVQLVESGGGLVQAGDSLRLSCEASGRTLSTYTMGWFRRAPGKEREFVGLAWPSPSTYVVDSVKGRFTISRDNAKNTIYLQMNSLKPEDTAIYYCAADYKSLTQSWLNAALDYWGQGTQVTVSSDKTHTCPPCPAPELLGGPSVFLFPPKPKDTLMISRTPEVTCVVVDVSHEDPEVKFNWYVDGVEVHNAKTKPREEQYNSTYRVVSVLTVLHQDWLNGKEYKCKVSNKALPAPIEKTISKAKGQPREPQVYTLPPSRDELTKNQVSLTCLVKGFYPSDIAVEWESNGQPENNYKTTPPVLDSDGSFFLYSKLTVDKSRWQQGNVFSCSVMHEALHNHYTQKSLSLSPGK
T3 sequence (A0A7N9I9V4 entry or part of it): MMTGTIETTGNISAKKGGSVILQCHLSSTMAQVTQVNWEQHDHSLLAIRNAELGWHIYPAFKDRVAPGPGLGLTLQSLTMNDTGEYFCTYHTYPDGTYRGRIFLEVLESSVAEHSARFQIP
T4 sequence (P01857 other isoform, or with tags, fused parts or gaps limits assumed): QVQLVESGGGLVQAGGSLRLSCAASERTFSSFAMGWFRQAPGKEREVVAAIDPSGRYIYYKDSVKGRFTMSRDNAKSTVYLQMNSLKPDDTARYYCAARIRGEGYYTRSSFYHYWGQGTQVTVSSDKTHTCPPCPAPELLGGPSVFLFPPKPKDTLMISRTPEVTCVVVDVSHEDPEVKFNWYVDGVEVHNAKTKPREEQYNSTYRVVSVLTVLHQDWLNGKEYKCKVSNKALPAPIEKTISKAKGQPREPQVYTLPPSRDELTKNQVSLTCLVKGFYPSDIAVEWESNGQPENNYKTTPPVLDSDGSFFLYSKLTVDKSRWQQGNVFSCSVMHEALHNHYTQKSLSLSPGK

Binder: B1
binding result [1]: binds

Binder: B2
EC50 (read off the curve) [2]: ~0.5 nM
binding result (recombinant mouse-TIGIT): no binding
EC50 (read off the curve); NFAT reporter activity (RLU), human TIGIT blockade reporter assay (lower panel) [3]: ~1 nM
EC50 [4]: 0.32 nM
EC50 (read off the curve) [5]: ~0.1 µg/mL
EC50 (read off the curve) [6]: ~0.1 µg/mL
EC50, TIGIT blockade NFAT luciferase reporter assay [7]: 0.48 nM

Binder: B3
binding result [8]: binds
binding result [9]: binds
binding result [10]: binds
binding result [11]: binds
binding result [12]: binds
binding result [13]: binds
binding result [14]: binds
binding result [15]: binds
binding result [16]: binds
binding result [17]: binds
binding result [18]: binds
